Measured values as given in PMC11685794 (Nature Communications, 2024).

B1: CD163 SRCR 1-5 (residues 42-578) (domain or fragment)
chain: SSLGGTDKELRLVDGENKCSGRVEVKVQEEWGTVCNNGWSMEAVSVICNQLGCPTAIKAPGWANSSAGSGRIWMDHVSCRGNESALWDCKHDGWGKHSNCTHQQDAGVTCSDGSNLEMRLTRGGNMCSGRIEIKFQGRWGTVCDDNFNIDHASVICRQLECGSAVSFSGSSNFGEGSGPIWFDDLICNGNESALWNCKHQGWGKHNCDHAEDAGVICSKGADLSLRLVDGVTECSGRLEVRFQGEWGTICDDGWDSYDAAVACKQLGCPTAVTAIGRVNASKGFGHIWLDSVSCQGHEPAIWQCKHHEWGKHYCNHNEDAGVTCSDGSDLELRLRGGGSRCAGTVEVEIQRLLGKVCDRGWGLKEADVVCRQLGCGSALKTSYQVYSKIQATNTWLFLSSCNGNETSLWDCKNWQWGGLTCDHYEEAKITCSAHREPRLVGGDIPCSGRVEVKHGDTWGSICDSDFSLEAASVLCRELQCGTVVSILGGAHFGEGNGQIWAEEFQCEGHESHLSLCPVAPRPEGTCSHSRDVGVVCS
B2: hemoglobin (Hb) (complex)
chain 1: not shown
chain 2: not shown

Key:
[1] = target: haptoglobin-hemoglobin complex, Hp(1-1)Hb (αβHb bound to dimeric Hp1-1) (human, UniProt P00738-2;P00738;P69905;P68871); experiment: SPR
[2] = target: B1; experiment: SPR

| Binder | Kd [1] [nM] | Kd [2] [µM] |
| --- | --- | --- |
| B1 | 766 | – |
| B2 | – | 43.8 |
